What all share (test): phage display selection and ELISA on biotinylated target peptide
Background: In an ELISA, binding on a coated surface is turned into a signal by an enzyme label.

Test [1] has as its target T1, Perilipin epitope 5 peptide AKPSLLSRVGALTNT (SEQ ID NO. 332) (human, Biotin-PEG Spacer and GGSGGS Linker (SEQ ID NO. 438) at the N-terminus, or Biotin-PEG Spacer and AAAAA Linker (SEQ ID NO. 439) at the C-terminus).
T1 construct: Two biotinylated variants were used for selection and ELISA; On the peptide array it stood without biotin; also called target peptide
T1 peptide: AKPSLLSRVGALTNT

Test [2] concerns the target T2, Perilipin epitope 1 peptide NKGLTLLDGDLPEQE (SEQ ID NO. 330) (human, Biotin-PEG Spacer and GGSGGS Linker (SEQ ID NO. 438) at the N-terminus, or Biotin-PEG Spacer and AAAAA Linker (SEQ ID NO. 439) at the C-terminus).
T2 construct: Two biotinylated variants were used for selection and ELISA; On the peptide array it stood without biotin; also called target peptide
T2 peptide: NKGLTLLDGDLPEQE

Test [3] concerns the target T3, Perilipin epitope 2 peptide QYPPEKIASELKDTI (SEQ ID NO. 331) (human, Biotin-PEG Spacer and GGSGGS Linker (SEQ ID NO. 438) at the N-terminus, or Biotin-PEG Spacer and AAAAA Linker (SEQ ID NO. 439) at the C-terminus).
T3 construct: Two biotinylated variants were used for selection and ELISA; On the peptide array it stood without biotin; also called target peptide
T3 peptide: QYPPEKIASELKDTI

Positions count from the first letter of the chain named.

B1: Antibody No. 35 (antibody, V domains shown)
VH: QVQLVQSGAEVKKPGTTVKISCKVSGYSFTDYYMHWVQQAPGKGLEWMGLVDPEDGETLYAEKFQGRVTITVDTSTDTAYMELSSLRSEDTAVYYCAAEPQMVQGPSPPDYWGQGTLVTVSS
VL: QSALTQPASVSGSPGQSITISCTGTSSDVGGYSYVSWYQQHPGKAPKLMIYDVSNRPSGVSNRFSGSKSGNTASLTISGLQAEDEADYYCSSYTSSSTLLFGGGTKLTVL
notes: human IgG1, lambda or kappa light chain; also called 447-E03
On to B1, for which the binding result in test [1] is on record as “binds”.

B2: Antibody No. 8 (antibody, V domains shown)
VH: QVQLVESGAEVKKPGASVKVSCKASGYTFTSYGISWVRQAPGQGLEWMGWISAYNGNTNYAQKLQGRVTMTTDTSTSTAYMELRSLRSDDTAVYYCARGGSSSNYWGQGTLVTVSS
VL: B1 VL with S33N, D52E, L100V
notes: human IgG1, lambda or kappa light chain; also called 448-E03
Take B2: in test [2], the binding result is recorded as “binds”.

B3: Antibody No. 21 (antibody, V domains shown)
VH: QVQLVESGGGLVQPGRSLRLSCAASGFTFDDYAMHWVRQAPGKGLEWVSGISWNSGSIGYADSVKGRFTISRDNAKNSLYLQMNSLRAEDTALYYCAKEGEYSYGGGEFDPWGQGTLVTVSS
VL: B1 VL with S33N, L99W, L100V
notes: human IgG1, lambda or kappa light chain; also called 447-G03
For the molecule B3, the binding result in test [1] is on record as “binds”.

B4: Antibody No. 37 (antibody, V domains shown)
VH: QVQLVQSGAEVKKPGASVKVSCKASGYTFTSYYMHWVRQAPGQGLEWMGIINPSGGSTSYAQKFQGRVTMTRDTSTSTVYMELSSLRSEDTAVYYCARDSYYDSSGYYYADAFDIWGQGTMVTVSS
VL: QSVLTQPPSVSGAPGQRVTISCTGSSSNIGAGYDVHWYQQLPGTAPKLLIYGNSNRPSGVPDRFSGSKSGTSASLAITGLQAEDEADYYCQSYDSSLSGDVVFGGGTKLTVL
notes: human IgG1, lambda or kappa light chain; also called 447-F02
With B4, in test [1], the binding result is recorded as “binds”.

B5: Antibody No. 10 (antibody, V domains shown)
VH: EVQLVQSGAEVKKPGSSVKISCKASGGTFSSYAISWVRQAPGQGLEWMGGIIPIFGTANYAQKFQGRVTITADESTSTAYMELSSLRSEDTAVYYCARSHSSGWEWWGQGTLVTVSS
VL: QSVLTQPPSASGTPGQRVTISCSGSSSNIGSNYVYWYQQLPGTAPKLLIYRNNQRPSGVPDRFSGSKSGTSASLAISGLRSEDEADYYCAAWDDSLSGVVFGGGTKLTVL
notes: human IgG1, lambda or kappa light chain; also called 439-E10
On to B5, for which, in test [3], the binding result was “binds”.

B6: Antibody No. 14 (antibody, V domains shown)
VH: QVQLVESGGGLVQPGRSLRLSCAASGFTFDDYAMHWVRQAPGKGLEWVSGISWNSGSIGYADSVKGRFTISRDNAKNSLYLQMNSLRAEDTALYYCAKEGYGNDAFDIWGQGTMVTVSS
VL: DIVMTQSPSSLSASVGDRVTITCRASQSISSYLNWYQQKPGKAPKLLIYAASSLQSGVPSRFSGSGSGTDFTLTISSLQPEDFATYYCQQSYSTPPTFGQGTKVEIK
notes: human IgG1, lambda or kappa light chain; also called 432-H10
As for B6, the binding result in test [1] is recorded as “binds”.

B7: Antibody No. 19 (antibody, V domains shown)
VH: QVQLVQSGGGVVQPRRSLRLSCAASGFTFSSYAMHWVRQAPGKGLEWVAVISYDGSNKYYADPVKGRFTISRDNSKNTLYLQMNSLRAEDTAVYYCARGGDGYNWDAFDIWGQGTMVTVSS
VL: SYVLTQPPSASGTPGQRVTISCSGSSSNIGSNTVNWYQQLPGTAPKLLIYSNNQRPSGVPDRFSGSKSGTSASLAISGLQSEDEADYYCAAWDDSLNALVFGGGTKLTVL
notes: human IgG1, lambda or kappa light chain; also called 447-D04
For B7, the binding result in test [1] is recorded as “binds”.

B8: Antibody No. 6 (antibody, V domains shown)
VH: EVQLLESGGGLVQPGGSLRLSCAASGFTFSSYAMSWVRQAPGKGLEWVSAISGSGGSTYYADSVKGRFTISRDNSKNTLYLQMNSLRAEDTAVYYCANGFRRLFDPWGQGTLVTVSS
VL: QSALTQPASVSGSPGQSITISCTGTSSDVGGYNYVSWYQQHPGKAPKLMIYDVSNRPSGVSNRFSGSKSGNTASLTISGLQAEDEADYYCSSYTSSSTHVVFGGGTKLTVL
notes: human IgG1, lambda or kappa light chain; also called 448-B03
B8: in test [2], the binding result is listed as “binds”.

B9: Antibody No. 17 (antibody, V domains shown)
VH: EVQLVQSGGGVVQPGRSLRLSCAASGFTFSSYGMHWVRQAPGKGLEWVAVISYDGSNKYYADSVKGRFTISRDNSKNTLYLQMNSLRAEDTAVYYCAKDIFMDVWGQGTMVTVSS
VL: B8 VL with H99L
notes: human IgG1, lambda or kappa light chain; also called 447-C04
With B9, the binding result in test [1] was “binds”.

B10: Antibody No. 18 (antibody, V domains shown)
VH: EVQLLESGGGLVQPGRSLRLACVASGFTFDDYGMHWVRQAPGKGLEWVAVISYDGSNKYYADSVKGRFTISRDNSKNTLYLQMNSLRAEDTAVYYCAKAYGEGGFDPWGQGTLVTVSS
VL: B8 VL with D52E, H99T, V100W, L108V
notes: human IgG1, lambda or kappa light chain; also called 447-D03
Take B10: in test [1], the binding result is “binds”.

B11: Antibody No. 38 (antibody, V domains shown)
VH: EVQLVQSGAEVKKPGASVKVSCKASGYTFTSYYMHWVRQAPGQGLEWMGIINPSGGSTSYAQKFQGRVTMTRDTSTSTVYMELSSLRSEDTAVYYCARNVPGDYEVGFDYWGQGTLVTVSS
VL: QSVLTQPPSVSGAPGQRVTISCTGSSSNIGAGYDVHWYQQLPGTAPKLLIYGNSNRPSGVPDRFSGSKSGTSASLAITGLQAEDEADYYCQSYDSSLSAVVFGGGTKLTVL
notes: human IgG1, lambda or kappa light chain; also called 447-A05
As for B11, the binding result in test [1] is recorded as “binds”.

B12: Antibody No. 11 (antibody, V domains shown)
VH: QVQLVQSGAEVKKPGASVKVSCKASGYTFTSYGISWVRQAPGQGLEWMGWISAYNGNTNYAQKLQGRVTMTTDTSTSTAYMELRSLRSDDTAVYYCASLYCSGGSCYSALDPWGQGTLVTVSS
VL: B11 VL with S98R, A99Y, L108V
notes: human IgG1, lambda or kappa light chain; also called 447-D12
With B12, the binding result in test [3] is “binds”.

B13: Antibody No. 7 (antibody, V domains shown)
VH: QVQLVQSGGSVVQPGRSLRLSCAASGFTFSSYAMHWVRQAPGKGLEWVAVISYDGSNKYYADSVKGRFTISRDNSKNTLYLQMNSLRAEDTAVYYCARFASIAARPFDYWGQGTLVTVSS
VL: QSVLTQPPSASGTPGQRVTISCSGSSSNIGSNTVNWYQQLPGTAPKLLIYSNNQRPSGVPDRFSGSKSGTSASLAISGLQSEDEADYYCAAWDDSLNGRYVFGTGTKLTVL
notes: human IgG1, lambda or kappa light chain; also called 448-D02
In the case of B13, the binding result in test [2] was “binds”.

B14: Antibody No. 36 (antibody, V domains shown)
VH: EVQLVESGGGVVQPGRSLRLSCAASGFTFSSYAMHWVRQAPGKGLEWVAVISYDGSNKYYADSVKGRFTISRDNSKNTLYLQMNSLRAEDTAVYYCARDPLYGMDVWGQGTLVTVSS
VL: QSVLTQPPSASGSPGQSVTISCTGTSSDVGNYNYVSWFQQHPGKAPKLMIYEVSKRPSGVPDRFSGSKSGNTASLTVSGLQAEDEADYYCASYADSNNLYVFGTGTKLTVL
notes: human IgG1, lambda or kappa light chain; also called 447-B03
Take B14: in test [1], the binding result is “binds”.

B15: Antibody No. 9 (antibody, V domains shown)
VH: B14 VH with E1Q, E6Q, A33G, R98N, D99N, L101S, Y102S, M104A, V106Y
VL: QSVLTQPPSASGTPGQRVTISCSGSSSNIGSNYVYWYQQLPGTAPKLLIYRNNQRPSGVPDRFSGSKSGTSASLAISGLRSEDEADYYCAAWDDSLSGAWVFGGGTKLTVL
notes: human IgG1, lambda or kappa light chain; also called 448-G01
As to B15, the binding result in test [2] is reported as “binds”.

B16: Antibody No. 5 (antibody, V domains shown)
VH: QVQLVESGGGVVQPGRSLRLSCAASGFTFSSYAMHWVRQAPGKGLEWVAVISYDGSNKYYADSVKGRFTISRDNSKNTLYLQMNSLRAEDTAVYYCARIAAAGPFDYWGQGTLVTVSS
VL: SYVLTQPPSVSEAPRQRVTISCSGSSSNIGNNAVNWYQQLPGKAPKLLIYYDDLLPSGVSDRFSGSKSGTSASLAISGLQSEDEADYYCAAWDDSLNGVVFGGGTKLTVL
notes: human IgG1, lambda or kappa light chain; also called 438-G12; antibody #5
Turning to B16, the binding result in test [2] is “binds”.

B17: Antibody No. 16 (antibody, V domains shown)
VH: QVQLVEFGGGVVQPGRSLRLSCAASGFTFSSYGMHWVRQAPGKGLEWVAAISYDGSNKYYADSVKGRFTISRDNSKNTLYLQMNSLRAEDTAVYYCAKDMGLSWYGEFDYWGQGTLVTVSS
VL: QSVLTQPPSVSEAPRQRVTISCSGSSSNIGNNAVSWYQQLPGKAPKLLIYYDDLLPSGVSDRFSGSKSGTSASLAISGLQSEDEADYYCAAWDDSLNWVFGGGTKLTVL
notes: human IgG1, lambda or kappa light chain; also called 447-B05
As to B17, in test [1], the binding result is “binds”.

B18: Antibody No. 22 (antibody, V domains shown)
VH: QVQLVESGGGVVQPGRSLRLSCAASGFTFSSYGMHWVRQAPGKGLEWVAVISYDGSNKYYADSVKGRFTISRDNSKNTLYLQMNSLRAEDTAVYYCANTPGGLTPFDYWGQGTLVTVSS
VL: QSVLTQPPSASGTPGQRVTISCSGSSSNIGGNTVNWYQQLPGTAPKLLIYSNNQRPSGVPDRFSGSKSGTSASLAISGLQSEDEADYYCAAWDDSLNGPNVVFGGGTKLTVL
notes: human IgG1, lambda or kappa light chain; also called 447-H03
Take B18: the binding result in test [1] was “binds”.

For the origin of these results see patent US20220153822A1 (ALYTAS THERAPEUTICS, published 2022).
